{"source": "paper doi:10.1101/400432", "about": "“The deadly touch: protein denaturation at the water-air interface and how to prevent it” (bioRxiv, 2018)", "binders": {"B1": {"name": "fatty acid synthase subunit encoded by FAS2 (Saccharomyces cerevisiae) (enzyme, S. cerevisiae, UniProt P19097 1-1887, looked up)", "chain": "MKPEVEQELAHILLTELLAYQFASPVRWIETQDVFLKDFNTERVVEIGPSPTLAGMAQRTLKNKYESYDAALSLHREILCYSKDAKEIYYTPDPSELAAKEEPAKEEAPAPTPAASAPAPAAAAPAPVAAAAPAAAAAEIADEPVKASLLLHVLVAHKLKKSLDSIPMSKTIKDLVGGKSTVQNEILGDLGKEFGTTPEKPEETPLEELAETFQDTFSGALGKQSSSLLSRLISSKMPGGFTITVARKYLQTRWGLPSGRQDGVLLVALSNEPAARLGSEADAKAFLDSMAQKYASIVGVDLSSAASASGAAGAGAAAGAAMIDAGALEEITKDHKVLARQQLQVLARYLKMDLDNGERKFLKEKDTVAELQAQLDYLNAELGEFFVNGVATSFSRKKARTFDSSWNWAKQSLLSLYFEIIHGVLKNVDREVVSEAINIMNRSNDALIKFMEYHISNTDETKGENYQLVKTLGEQLIENCKQVLDVDPVYKDVAKPTGPKTAIDKNGNITYSEEPREKVRKLSQYVQEMALGGPITKESQPTIEEDLTRVYKAISAQADKQDISSSTRVEFEKLYSDLMKFLESSKEIDPSQTTQLAGMDVEDALDKDSTKEVASLPNKSTISKTVSSTIPRETIPFLHLRKKTPAGDWKYDRQLSSLFLDGLEKAAFNGVTFKDKYVLITGAGKGSIGAEVLQGLLQGGAKVVVTTSRFSKQVTDYYQSIYAKYGAKGSTLIVVPFNQGSKQDVEALIEFIYDTEKNGGLGWDLDAIIPFAAIPEQGIELEHIDSKSEFAHRIMLTNILRMMGCVKKQKSARGIETRPAQVILPMSPNHGTFGGDGMYSESKLSLETLFNRWHSESWANQLTVCGAIIGWTRGTGLMSANNIIAEGIEKMGVRTFSQKEMAFNLLGLLTPEVVELCQKSPVMADLNGGLQFVPELKEFTAKLRKELVETSEVRKAVSIETALEHKVVNGNSADAAYAQVEIQPRANIQLDFPELKPYKQVKQIAPAELEGLLDLERVIVVTGFAEVGPWGSARTRWEMEAFGEFSLEGCVEMAWIMGFISYHNGNLKGRPYTGWVDSKTKEPVDDKDVKAKYETSILEHSGIRLIEPELFNGYNPEKKEMIQEVIVEEDLEPFEASKETAEQFKHQHGDKVDIFEIPETGEYSVKLLKGATLYIPKALRFDRLVAGQIPTGWNAKTYGISDDIISQVDPITLFVLVSVVEAFIASGITDPYEMYKYVHVSEVGNCSGSGMGGVSALRGMFKDRFKDEPVQNDILQESFINTMSAWVNMLLISSSGPIKTPVGACATSVESVDIGVETILSGKARICIVGGYDDFQEEGSFEFGNMKATSNTLEEFEHGRTPAEMSRPATTTRNGFMEAQGAGIQIIMQADLALKMGVPIYGIVAMAATATDKIGRSVPAPGKGILTTAREHHSSVKYASPNLNMKYRKRQLVTREAQIKDWVENELEALKLEAEEIPSEDQNEFLLERTREIHNEAESQLRAAQQQWGNDFYKRDPRIAPLRGALATYGLTIDDLGVASFHGTSTKANDKNESATINEMMKHLGRSEGNPVIGVFQKFLTGHPKGAAGAWMMNGALQILNSGIIPGNRNADNVDKILEQFEYVLYPSKTLKTDGVRAVSITSFGFGQKGGQAIVVHPDYLYGAITEDRYNEYVAKVSAREKSAYKFFHNGMIYNKLFVSKEHAPYTDELEEDVYLDPLARVSKDKKSGSLTFNSKNIQSKDSYINANTIETAKMIENMTKEKVSNGGVGVDVELITSINVENDTFIERNFTPQEIEYCSAQPSVQSSFAGTWSAKEAVFKSLGVKSLGGGAALKDIEIVRVNKNAPAVELHGNAKKAAEEAGVTDVKVSISHDDLQAVAVAVSTKK", "notes": "Fatty acid synthase subunit encoded by the FAS2 gene, S. cerevisiae; expressed from plasmid pMF319d (pRS313_FAS2); also called alpha (alpha wheel)"}}, "key": {"[1]": {"biological_target": "the molecule itself", "assay": "cryo-EM structure; single-particle cryo-EM of purified FAS complex (0.2 mg/ml) on Quantifoil R0.6/1 grids coated with graphene hydrophilized with 1-pyrCA; about 28,000 particles; maps at 4.8 Å (C1) and 4.0 Å (D3)"}, "[2]": {"biological_target": "T1, fatty acid synthase subunit encoded by FAS1, twinStrep-II tagged (Saccharomyces cerevisiae) (S. cerevisiae, UniProt P07149 1-2051)", "T1 construct": "Fatty acid synthase subunit encoded by the FAS1 gene, S. cerevisiae; expressed from plasmid pMF639 (pRS315_FAS1-twinStrep-II); also called strep-tagged FAS; beta (beta-domes)", "T1 sequence (P07149 whole entry)": "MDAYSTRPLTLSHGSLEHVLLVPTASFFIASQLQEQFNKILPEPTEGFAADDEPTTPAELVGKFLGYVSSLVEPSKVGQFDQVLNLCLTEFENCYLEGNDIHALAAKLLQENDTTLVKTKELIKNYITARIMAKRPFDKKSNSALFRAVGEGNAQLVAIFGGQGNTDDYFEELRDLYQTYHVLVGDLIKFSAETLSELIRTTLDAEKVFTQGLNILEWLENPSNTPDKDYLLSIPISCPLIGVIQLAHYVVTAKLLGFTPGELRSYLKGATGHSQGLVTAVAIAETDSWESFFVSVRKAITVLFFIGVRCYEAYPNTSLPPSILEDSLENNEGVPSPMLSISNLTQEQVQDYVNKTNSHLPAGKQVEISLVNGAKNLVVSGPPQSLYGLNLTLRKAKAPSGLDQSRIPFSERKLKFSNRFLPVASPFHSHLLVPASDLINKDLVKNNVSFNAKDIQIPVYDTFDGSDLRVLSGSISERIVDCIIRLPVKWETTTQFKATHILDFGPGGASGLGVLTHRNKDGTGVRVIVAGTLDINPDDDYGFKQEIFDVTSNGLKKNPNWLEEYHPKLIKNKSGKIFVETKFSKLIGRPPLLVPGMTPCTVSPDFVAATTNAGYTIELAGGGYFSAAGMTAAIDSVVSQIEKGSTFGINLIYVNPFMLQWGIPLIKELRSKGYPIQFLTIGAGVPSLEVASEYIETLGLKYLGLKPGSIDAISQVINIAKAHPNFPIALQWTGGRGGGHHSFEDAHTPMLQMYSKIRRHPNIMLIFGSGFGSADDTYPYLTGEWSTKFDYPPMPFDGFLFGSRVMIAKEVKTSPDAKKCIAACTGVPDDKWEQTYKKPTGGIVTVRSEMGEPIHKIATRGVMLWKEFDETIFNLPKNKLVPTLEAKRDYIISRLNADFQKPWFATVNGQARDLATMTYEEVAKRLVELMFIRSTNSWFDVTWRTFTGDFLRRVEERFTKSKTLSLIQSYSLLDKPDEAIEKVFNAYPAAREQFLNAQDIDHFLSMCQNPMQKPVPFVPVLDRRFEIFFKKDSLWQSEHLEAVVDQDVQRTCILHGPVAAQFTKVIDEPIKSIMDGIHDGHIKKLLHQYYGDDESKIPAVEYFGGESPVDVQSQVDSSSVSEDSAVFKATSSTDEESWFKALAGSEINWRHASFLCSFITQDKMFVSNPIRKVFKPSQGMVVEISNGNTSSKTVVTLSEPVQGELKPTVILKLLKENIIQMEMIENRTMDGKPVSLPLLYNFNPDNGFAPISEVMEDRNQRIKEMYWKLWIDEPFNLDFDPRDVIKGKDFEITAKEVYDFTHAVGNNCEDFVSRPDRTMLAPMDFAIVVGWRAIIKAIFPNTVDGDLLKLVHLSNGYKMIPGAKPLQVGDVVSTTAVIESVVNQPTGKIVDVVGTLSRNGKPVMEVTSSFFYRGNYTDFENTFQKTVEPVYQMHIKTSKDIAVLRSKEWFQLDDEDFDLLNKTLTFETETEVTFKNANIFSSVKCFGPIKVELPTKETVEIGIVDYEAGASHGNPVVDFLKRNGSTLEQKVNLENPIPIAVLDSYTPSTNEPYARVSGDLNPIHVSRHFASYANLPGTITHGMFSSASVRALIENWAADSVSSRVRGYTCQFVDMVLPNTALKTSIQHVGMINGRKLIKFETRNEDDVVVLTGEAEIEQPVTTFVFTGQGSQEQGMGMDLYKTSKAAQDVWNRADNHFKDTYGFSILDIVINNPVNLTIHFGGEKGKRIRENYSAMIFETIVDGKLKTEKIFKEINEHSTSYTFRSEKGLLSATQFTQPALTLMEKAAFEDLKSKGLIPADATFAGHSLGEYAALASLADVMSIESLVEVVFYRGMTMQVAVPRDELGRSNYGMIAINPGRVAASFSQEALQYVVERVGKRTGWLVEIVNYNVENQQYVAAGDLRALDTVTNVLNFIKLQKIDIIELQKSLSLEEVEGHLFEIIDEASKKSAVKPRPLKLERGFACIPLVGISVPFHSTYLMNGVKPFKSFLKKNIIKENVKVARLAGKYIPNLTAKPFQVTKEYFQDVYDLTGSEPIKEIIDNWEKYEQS", "assay": "cryo-EM structure; single-particle cryo-EM of purified FAS complex (0.2 mg/ml) on Quantifoil R0.6/1 grids coated with graphene hydrophilized with 1-pyrCA; about 28,000 particles; maps at 4.8 Å (C1) and 4.0 Å (D3)", "conditions": "both partners purified"}}}
{"binder": "B1", "values": [{"measurement": "binding result", "setting": "[1]", "result": "binds"}, {"measurement": "binding result", "setting": "[2]", "result": "binds"}]}
